The subject of the test is anti-BCMA CARs. Description: BCMA-Fc fusion protein binding to CAR T cells by flow cytometry. To be noted: versus T cells expressing CARs that do not bind BCMA. On the procedure:
The clone encoding the recombinant human BCMA-Fc fusion construct with the N-terminal CD33 leader sequence (SEQ ID NO: 30) was inserted into an expression vector and expressed in HEK 293 cells. Supernatant from the transiently transfected HEK cells was harvested after 5 days and the BCMA-FC fusion protein was purified by protein A affinity chromatography and size exclusion chromatography (SEC). The resulting BCMA-Fc fusion protein was determined to have a purity of greater than 95% as assessed by gel permeation chromatography.
(In general: A flow cytometer gives signals particle by particle.)

We go through 1 molecule from patent publication US20230242654A1, “REAGENTS FOR EXPANDING CELLS EXPRESSING RECOMBINANT RECEPTORS” (Juno Therapeutics, Inc., priority 2017, published 2023).

B1: BCMA-Fc fusion protein: extracellular domain of human BCMA and a human IgG1 Fc connected with a linker (SEQ ID NO: 35) (protein)
chain: MLQMAGQCSQNEYFDSLLHACIPCQLRCSSNTPPLTCQRYCNASVTNSVKGTNAGGGGSPKSSDKTHTCPPCPAPEAEGAPSVFLFPPKPKDTLMISRTPEVTCVVVDVSHEDPEVKFNWYVDGVEVHNAKTKPREEQYNSTYRVVSVLTVLHQDWLNGKEYKCKVSNKALPSSIEKTISKAKGQPREPQVYTLPPSRDELTKNQVSLTCLVKGFYPSDIAVEWESNGQPENNYKTTPPVLDSDGSFFLYSKLTVDKSRWQQGNVFSCSVMHEALHNHYTQKSLSLSPGK
modifications: BCMA-Fc fusion polypeptide
On to B1, for which the “binding of BCMA-Fc to CAR expressing T cells” value is “specifically bound to anti-BCMA CAR expressing T cells”.
